According to doi:10.1101/2025.11.14.688546, “Nuclear-import receptors remodel the dilute phase to suppress phase transitions of RNA-binding proteins with prion-like domains” (bioRxiv, 2025):
Read-outs that look alike come from different tables or passages of the source.

Assays:
[1] = biological target: Kapβ2 (Homo sapiens) (UniProt Q92973); test: fluorescence anisotropy; settings: cited from earlier work
[2] = biological target: Kapβ2 (Homo sapiens) (UniProt Q92973); settings: cited from earlier work
[3] = biological target: hnRNPA1 (UniProt P09651)
[4] = biological target: the molecule itself; test: microfluidic resistive pulse sensing (MRPS); increasing concentrations of the RNA-binding protein alone; MBP cleaved in situ by TEV (0.04 mg/ml), 1.5–2 h at room temperature; C-400 and C-2000 cartridges (70–2000 nm); FUS: 20 mM HEPES pH 7.4, 207 mM NaCl, 1.3 mM DTT, 0.7 mM EDTA, 3.3 % glycerol; hnRNPA1 and hnRNPA2: same with 66.7 mM NaCl

Sequence of Kapβ2 (Homo sapiens) (Q92973 whole entry): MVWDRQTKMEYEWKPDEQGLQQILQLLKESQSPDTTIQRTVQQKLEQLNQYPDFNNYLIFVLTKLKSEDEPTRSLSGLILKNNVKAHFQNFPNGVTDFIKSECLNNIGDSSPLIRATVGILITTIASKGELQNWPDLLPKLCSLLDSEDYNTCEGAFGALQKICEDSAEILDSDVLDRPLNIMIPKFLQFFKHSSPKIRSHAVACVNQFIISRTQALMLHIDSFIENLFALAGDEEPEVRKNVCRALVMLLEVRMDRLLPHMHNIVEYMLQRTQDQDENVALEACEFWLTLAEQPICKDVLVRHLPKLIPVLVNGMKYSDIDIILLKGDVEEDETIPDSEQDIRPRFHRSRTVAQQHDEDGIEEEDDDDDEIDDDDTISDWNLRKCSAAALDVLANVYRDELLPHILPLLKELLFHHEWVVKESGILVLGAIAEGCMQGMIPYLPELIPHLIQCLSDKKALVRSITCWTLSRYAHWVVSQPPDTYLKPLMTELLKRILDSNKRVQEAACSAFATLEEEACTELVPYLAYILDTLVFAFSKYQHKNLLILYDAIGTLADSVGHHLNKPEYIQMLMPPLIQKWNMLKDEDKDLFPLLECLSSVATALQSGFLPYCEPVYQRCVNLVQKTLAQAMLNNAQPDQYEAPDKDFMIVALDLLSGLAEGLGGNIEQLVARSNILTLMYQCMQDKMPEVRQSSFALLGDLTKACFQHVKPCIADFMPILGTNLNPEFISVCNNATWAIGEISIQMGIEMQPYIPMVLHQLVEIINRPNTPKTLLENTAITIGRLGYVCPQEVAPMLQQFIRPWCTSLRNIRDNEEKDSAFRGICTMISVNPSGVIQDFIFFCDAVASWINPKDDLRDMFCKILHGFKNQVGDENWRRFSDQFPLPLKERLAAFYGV
Sequence of hnRNPA1 (P09651 whole entry): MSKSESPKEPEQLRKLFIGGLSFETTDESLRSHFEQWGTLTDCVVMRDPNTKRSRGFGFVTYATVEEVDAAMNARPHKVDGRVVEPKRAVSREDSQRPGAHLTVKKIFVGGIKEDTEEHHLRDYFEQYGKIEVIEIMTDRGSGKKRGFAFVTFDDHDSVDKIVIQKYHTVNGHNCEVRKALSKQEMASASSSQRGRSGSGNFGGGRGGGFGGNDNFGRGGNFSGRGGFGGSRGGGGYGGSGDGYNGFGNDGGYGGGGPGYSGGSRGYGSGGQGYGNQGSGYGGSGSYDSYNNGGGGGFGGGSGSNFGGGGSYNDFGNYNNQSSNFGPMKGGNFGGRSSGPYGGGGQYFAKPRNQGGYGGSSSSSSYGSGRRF

Molecule: FUS (from UniProt P35637)
- Kd [1]: 43 nM
- Kd [2]: 50 nM

Molecule: Karyopherin-β2 (from UniProt Q92973 1-898) (natural protein)
- saturation concentration (csat) of hnRNPA1 for condensate formation, brightfield microscopy; ~4 μM without Kapβ2, measured with 2 μM Kapβ2 [3]: 6 µM

B1: FUS^P525L (natural protein, UniProt P35637 1-526, looked up)
chain: MASNDYTQQATQSYGAYPTQPGQGYSQQSSQPYGQQSYSGYSQSTDTSGYGQSSYSSYGQSQNTGYGTQSTPQGYGSTGGYGSSQSSQSSYGQQSSYPGYGQQPAPSSTSGSYGSSSQSSSYGQPQSGSYSQQPSYGGQQQSYGQQQSYNPPQGYGQQNQYNSSSGGGGGGGGGGNYGQDQSSMSSGGGSGGGYGNQDQSGGGGSGGYGQQDRGGRGRGGSGGGGGGGGGGYNRSSGGYEPRGRGGGRGGRGGMGGSDRGGFNKFGGPRDQGSRHDSEQDNSDNNTIFVQGLGENVTIESVADYFKQIGIIKTNKKTGQPMINLYTDRETGKLKGEATVSFDDPPSAKAAIDWFDGKEFSGNPIKVSFATRRADFNRGGGNGRGGRGRGGPMGRGGYGGGGSGGGGRGGFPSGGGGGGGQQRAGDWKCPNPTCENMNFSWRNECNQCKAPKPDGPGGGPGGSHMGGNYGDDRRGGRGGYDRGGYRGRGGDRGGFRGGRGGGDRGGFGPGKMDSRGEHRQDRRERLY
notes: Production of the variant is not described on its own; also called ALS-linked FUS variant P525L; not shown: MBP, N-terminal, cleaved
- binding result [4]: binds
